Laboratory results: patent US20250269025A1 (AVENCELL THERAPEUTICS, published 2025)
No end group written: not given here.

Assays:
human CD123-Fc = molecular target: T1, human CD123-Fc (human, UniProt P26951 19-305, limits assumed); experiment: SPR, Biacore X100, human CD123-Fc on CM5 chip, 1:1 model; KD CD123 (first number of the cell)
T1 construct: Coupled to a CM5 sensor chip; also called soluble recombinant CD123; not shown: Fc part
T1 sequence (looked up): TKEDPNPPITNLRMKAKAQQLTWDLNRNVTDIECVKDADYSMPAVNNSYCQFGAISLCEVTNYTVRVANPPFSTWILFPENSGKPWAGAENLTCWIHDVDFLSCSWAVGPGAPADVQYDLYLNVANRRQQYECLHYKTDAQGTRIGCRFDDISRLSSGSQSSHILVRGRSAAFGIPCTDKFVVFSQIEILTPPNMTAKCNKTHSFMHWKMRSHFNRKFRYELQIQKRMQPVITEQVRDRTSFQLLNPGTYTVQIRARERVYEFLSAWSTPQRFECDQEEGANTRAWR
Protocol: Binding of different variants of the targeting module according to the invention was analyzed by SPR measurements using human CD123-Fc coupled to a CM5 sensor chip on a Biacore X100 device (FIG. 2). Targeting modules were purified monomer except for the targeting module according to SEQ ID No. 8. […] For data fitting and KD calculation a 1:1 binding model was applied.

[1] = molecular target: T2, CD123 on CD123 positive AML cells (Oci-AML3, Molm-13, MV4-11, primary AML cells) (human, UniProt P26951 19-378); experiment: cell-based or functional assay
[2] = molecular target: T2, CD123 on CD123 positive AML cells …; experiment: cell-based or functional assay; remark: listed apart in the source
[3] = molecular target: T2, CD123 on CD123 positive AML cells …; experiment: flow cytometry on Oci-AML3 cells, anti-His-PE detection. Half-maximal binding from a four-parameter fit of gMFI. Unit taken from the concentration axis [M]
Protocol: Cellular binding of CD123-binding targeting modules (TM) was tested on CD123 positive target cell lines Oci-AML3 and Molm-13: A) SEQ ID No. 5 to Oci-AML3, B) SEQ ID No. 9 to Oci-AML3, C) SEQ ID No. 4 to Molm-13 and D) SEQ ID No. 6 to Molm-13. The affinity of TMs was analyzed by flow cytometry. The TMs were titrated on an AML cell lines and then detected by a mouse anti-His-tag antibody conjugated to phycoerythrin.
Different concentrations of R-TM123 were incubated with cells, washed and quantified. A dose-response curve was obtained when the geometric mean fluorescence (MFI) was plotted against the TM concentration.

[4] = molecular target: T2, CD123 on CD123 positive AML cells …; experiment: cell-based or functional assay; remark: listed apart in the source
[5] = molecular target: T2, CD123 on CD123 positive AML cells …; experiment: cell-based or functional assay; remark: listed apart in the source
[6] = molecular target: T3, La epitope 5B9 (SEQ ID No. 28) fused to human Fc domain (human, also: fused to human Fc domain, order, isotype, linker not given here); experiment: SPR, Biacore X100, La epitope 5B9-human Fc on CM5 chip; KD 5B9 (second number of the cell)
T3 construct: Coupled to a CM5 sensor chip; not shown: human Fc domain
T3 chain: KPLPEVTDEY
Protocol: Furthermore, binding of different variants of the targeting module according to the invention was analyzed using the La epitope 5B9 (SEQ ID No. 28) fused to human Fc domain which was coupled to a CM5 sensor chip on a Biacore X100 device (FIG. 3). The targeting modules were purified monomers. The targeting modules were concentrated between 2.47 to 200 nM and measured in technical duplicates. For data fitting and KD calculation a two-state-reaction binding model was applied.

[7] = molecular target: T2, CD123 on CD123 positive AML cells …; experiment: cellular binding assay per table caption, Oci-AML3 cells
[8] = molecular target: T2, CD123 on CD123 positive AML cells …; experiment: cellular binding assay per table caption, Molm-13 cells

B1: targeting module according to SEQ ID No. 5 (bispecific antibody)
chain: EVQLQQSGPELVKPGASVKMSCKASGYTFTDYYMKWVKQSHGKSLEWIGDIIPSNGATFYNQKFKGKATLTVDRSSSTAYMHLNSLTSEDSAVYYCTRSHLLRASWFAYWGQGTLVTVSAASGGGGSGGGGSGGGGSDFVMTQSPSSLTVTAGEKVTMSCKSSQSLLNSGNQKNYLTWYLQKPGQPPKLLIYWASTRESGVPDRFTGSGSGTDFTLTISSVQAEDLAVYYCQNDYSYPYTFGGGTKLEIKAAARGDIVMTQSPDSLAVSLGERATINCKSSQSLLNSRTPKNYLAWYQQKPGQPPKLLIYWASTRKSGVPDRFSGSGSGTDFTLTISSLQAEDVAVYYCKQSYNLLTFGGGTKVEIKGGGGSGGGGSGASAAGGGGSGGGGSQVQLVQSGAEVKKPGASVKVSCKASGYTFTHYYIYWVRQAPGQGLEWMGGVNPSNGGTHFNEKFKSRVTMTRDTSISTAYMELSRLRSDDTAVYYCARSEYDYGLGFAYWGQGTLVTVSSGGGGSHHHHHHHH
notes: also called R-TM123; muCD123 + 5B9-VL-VH
Human CD123-Fc
  Kd: 0.023 nM
[1]
  EC50 of R-TM123 for lysis of primary AML cells AML 1 by RevCAR-T, Donor #2: 3.4 pM
  EC50 of R-TM123 for lysis of primary AML cells AML 1 by RevCAR-T, Donor #3: 2.9 pM
  EC50 of R-TM123 for lysis of primary AML cells AML 1 by RevCAR-T, Donor #4: 1.8 pM
  EC50 of R-TM123 for lysis of primary AML cells AML 1 by RevCAR-T, Mean: 2.7 pM
  EC50 of R-TM123 for lysis of primary AML cells AML 3 by RevCAR-T, Donor #2: 3 pM
  EC50 of R-TM123 for lysis of primary AML cells AML 3 by RevCAR-T, Donor #3: 3.8 pM
  EC50 of R-TM123 for lysis of primary AML cells AML 3 by RevCAR-T, Donor #4: 2.2 pM
  EC50 of R-TM123 for lysis of primary AML cells AML 3 by RevCAR-T, Mean: 3 pM
  EC50 of R-TM123 for lysis of primary AML cells AML 4 by RevCAR-T, Donor #2: 1.7 pM
  EC50 of R-TM123 for lysis of primary AML cells AML 4 by RevCAR-T, Donor #3: 3.1 pM
  EC50 of R-TM123 for lysis of primary AML cells AML 4 by RevCAR-T, Donor #4: 1.8 pM
  EC50 of R-TM123 for lysis of primary AML cells AML 4 by RevCAR-T, Mean: 2.2 pM
  EC50 of R-TM123 for lysis of primary AML cells AML 5 by RevCAR-T, Donor #2: 2.2 pM
  EC50 of R-TM123 for lysis of primary AML cells AML 5 by RevCAR-T, Donor #3: 3.6 pM
  EC50 of R-TM123 for lysis of primary AML cells AML 5 by RevCAR-T, Donor #4: 2.1 pM
  EC50 of R-TM123 for lysis of primary AML cells AML 5 by RevCAR-T, Mean: 2.6 pM
[2]
  EC50 of R-TM123 for CD25 expression on CD4+ RevCAR-T, co-culture with MOLM-13, Donor #1: 2.6 pM
  EC50 of R-TM123 for CD25 expression on CD4+ RevCAR-T, co-culture with MOLM-13, Donor #2: 2.2 pM
  EC50 of R-TM123 for CD25 expression on CD4+ RevCAR-T, co-culture with MOLM-13, Donor #3: 2.3 pM
  EC50 of R-TM123 for CD25 expression on CD4+ RevCAR-T, co-culture with MOLM-13, Donor #4: 1.2 pM
  EC50 of R-TM123 for CD25 expression on CD4+ RevCAR-T, co-culture with MOLM-13, Mean: 2.1 pM
  EC50 of R-TM123 for CD25 expression on CD4+ RevCAR-T, co-culture with MV4-11, Donor #1: 8 pM
  EC50 of R-TM123 for CD25 expression on CD4+ RevCAR-T, co-culture with MV4-11, Donor #2: 6.5 pM
  EC50 of R-TM123 for CD25 expression on CD4+ RevCAR-T, co-culture with MV4-11, Donor #3: 10.2 pM
  EC50 of R-TM123 for CD25 expression on CD4+ RevCAR-T, co-culture with MV4-11, Donor #4: 8.9 pM
  EC50 of R-TM123 for CD25 expression on CD4+ RevCAR-T, co-culture with MV4-11, Mean: 8.4 pM
  EC50 of R-TM123 for CD25 expression on CD4+ RevCAR-T, co-culture with OCI-AML3, Donor #1: 2.9 pM
  EC50 of R-TM123 for CD25 expression on CD4+ RevCAR-T, co-culture with OCI-AML3, Donor #2: 3 pM
  EC50 of R-TM123 for CD25 expression on CD4+ RevCAR-T, co-culture with OCI-AML3, Donor #3: 2.3 pM
  EC50 of R-TM123 for CD25 expression on CD4+ RevCAR-T, co-culture with OCI-AML3, Donor #4: 2.4 pM
  EC50 of R-TM123 for CD25 expression on CD4+ RevCAR-T, co-culture with OCI-AML3, Mean: 2.6 pM
  EC50 of R-TM123 for CD25 expression on CD8+ RevCAR-T, co-culture with MOLM-13, Donor #1: 5.2 pM
  EC50 of R-TM123 for CD25 expression on CD8+ RevCAR-T, co-culture with MOLM-13, Donor #2: 4.3 pM
  EC50 of R-TM123 for CD25 expression on CD8+ RevCAR-T, co-culture with MOLM-13, Donor #3: 6 pM
  EC50 of R-TM123 for CD25 expression on CD8+ RevCAR-T, co-culture with MOLM-13, Donor #4: 2.1 pM
  EC50 of R-TM123 for CD25 expression on CD8+ RevCAR-T, co-culture with MOLM-13, Mean: 4.4 pM
  EC50 of R-TM123 for CD25 expression on CD8+ RevCAR-T, co-culture with MV4-11, Donor #1: 6.7 pM
  EC50 of R-TM123 for CD25 expression on CD8+ RevCAR-T, co-culture with MV4-11, Donor #2: 4.3 pM
  EC50 of R-TM123 for CD25 expression on CD8+ RevCAR-T, co-culture with MV4-11, Donor #3: 7.2 pM
  EC50 of R-TM123 for CD25 expression on CD8+ RevCAR-T, co-culture with MV4-11, Donor #4: 5.1 pM
  EC50 of R-TM123 for CD25 expression on CD8+ RevCAR-T, co-culture with MV4-11, Mean: 5.8 pM
  EC50 of R-TM123 for CD25 expression on CD8+ RevCAR-T, co-culture with OCI-AML3, Donor #1: 8.7 pM
  EC50 of R-TM123 for CD25 expression on CD8+ RevCAR-T, co-culture with OCI-AML3, Donor #2: 15.7 pM
  EC50 of R-TM123 for CD25 expression on CD8+ RevCAR-T, co-culture with OCI-AML3, Donor #3: 14.6 pM
  EC50 of R-TM123 for CD25 expression on CD8+ RevCAR-T, co-culture with OCI-AML3, Donor #4: 4.8 pM
  EC50 of R-TM123 for CD25 expression on CD8+ RevCAR-T, co-culture with OCI-AML3, Mean: 11 pM
[3]
  Kd: 2.92 nM
[4]
  EC50 of R-TM123 for GM-CSF release by RevCAR-T, co-culture with MOLM-13: 37.7 pM
  EC50 of R-TM123 for Granzyme B release by RevCAR-T, co-culture with MOLM-13: 4.4 pM
  EC50 of R-TM123 for IFN-γ release by RevCAR-T, co-culture with MOLM-13: 19.3 pM
  EC50 of R-TM123 for IL-2 release by RevCAR-T, co-culture with MOLM-13: 63.9 pM
  EC50 of R-TM123 for IL-4 release by RevCAR-T, co-culture with MOLM-13: 54.2 pM
  EC50 of R-TM123 for Perforin release by RevCAR-T, co-culture with MOLM-13: 3.7 pM
  EC50 of R-TM123 for TNF-α release by RevCAR-T, co-culture with MOLM-13: 53.9 pM
[5]
  EC50 of R-TM123 for RevCAR-T mediated lysis of MOLM-13, Donor #1: 1.3 pM
  EC50 of R-TM123 for RevCAR-T mediated lysis of MOLM-13, Donor #2: 2.2 pM
  EC50 of R-TM123 for RevCAR-T mediated lysis of MOLM-13, Donor #3: 2.6 pM
  EC50 of R-TM123 for RevCAR-T mediated lysis of MOLM-13, Donor #4: 1 pM
  EC50 of R-TM123 for RevCAR-T mediated lysis of MOLM-13, Mean: 1.8 pM
  EC50 of R-TM123 for RevCAR-T mediated lysis of MV4-11, Donor #1: 2.8 pM
  EC50 of R-TM123 for RevCAR-T mediated lysis of MV4-11, Donor #2: 4.2 pM
  EC50 of R-TM123 for RevCAR-T mediated lysis of MV4-11, Donor #3: 3.8 pM
  EC50 of R-TM123 for RevCAR-T mediated lysis of MV4-11, Donor #4: 3.3 pM
  EC50 of R-TM123 for RevCAR-T mediated lysis of MV4-11, Mean: 3.5 pM
  EC50 of R-TM123 for RevCAR-T mediated lysis of OCI-AML3, Donor #1: 8.6 pM
  EC50 of R-TM123 for RevCAR-T mediated lysis of OCI-AML3, Donor #2: 6.7 pM
  EC50 of R-TM123 for RevCAR-T mediated lysis of OCI-AML3, Donor #3: 4.9 pM
  EC50 of R-TM123 for RevCAR-T mediated lysis of OCI-AML3, Donor #4: 2.7 pM
  EC50 of R-TM123 for RevCAR-T mediated lysis of OCI-AML3, Mean: 5.7 pM
[6]
  Kd: 3.4 nM
[7]
  EC50: 3 pM
[8]
  EC50: 1.2 pM
